Results on 1 substance are retold here after PMC3025062.

As usually defined, the stoichiometry N is the number of molecules, sites or subunits per partner or assembly.

In this test the target is cis-3-chloroacrylic acid dehalogenase (native). The experiment in a line: crystal structure.

For the substance “cis-3-chloroacrylic acid dehalogenase (native) (enzyme)”, the stoichiometry N was found to be 3.
